Here are results for one sequence from patent US20060040881.

The data set deals with Coagulation factor IX/IXa (Macaca fascicularis). The experiment in a line: inhibition. To be noted: guggaCUaUaCCgCgUaaUgCuGcCUccacT; lower case 2'-OMe, upper case C/U 2'-F, upper case A/G 2'-OH, 3' idT; concentration inhibiting about 90% of plasma FIX activity (APTT 1.6-fold); >95% at 10-12 ug/mL; cynomolgus plasma; text cites Apt39 as SEQ ID NO:88.

The sequence GUGGACUAUACCGCGUAAUGCUGCCUCCAC [Apt39] registered an activity of 6 µg/mL.
